From paper doi:10.1101/2025.09.16.676304, “FoxP3 forms a head-to-head dimer in vivo and stabilizes its multimerization on adjacent microsatellites”

B1: IR-FKHM (DNA1) (dsDNA)
DNA 1: TAGGAAAATTTGTTTACTCGAGTAAACATC
DNA 2: GATGTTTACTCGAGTAAACAAATTTTCCTA
B2: sFKHM (DNA2) (dsDNA)
DNA 1: TAGGAAAATTTGCCGCGTCGAGTAAACATC
DNA 2: GATGTTTACTCGACGCGGCAAATTTTCCTA

What was measured:
Conditions in all cases: protein: recombinant;recombinant; tags: His6-NusA removed by HRV3C;His6-NusA removed by HRV3C; copies: 1;1
[1] = molecular target: T1, FoxP3 RBR-FKH;NFAT1 (Mus musculus;Mus musculus, UniProt Q99JB6;Q60591 284-423;394-680, |); assay: EMSA; NFAT 0.4 uM; FoxP3 dimer; EMSA: 20 mM HEPES pH 7.5, 150 mM NaCl, 1.5 mM MgCl2, 2 mM DTT, 4 C, 0.2 uM DNA; pull-down: 20 mM Tris-HCl pH 7.5, 100 mM NaCl, 1.5 mM MgCl2, RT, 0.4 uM protein, 0.1 uM DNA
T1 sequence 1: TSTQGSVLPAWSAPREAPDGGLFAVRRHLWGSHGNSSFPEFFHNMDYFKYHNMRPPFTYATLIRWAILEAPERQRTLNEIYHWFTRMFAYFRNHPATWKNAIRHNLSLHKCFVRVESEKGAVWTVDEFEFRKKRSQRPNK
T1 sequence 2: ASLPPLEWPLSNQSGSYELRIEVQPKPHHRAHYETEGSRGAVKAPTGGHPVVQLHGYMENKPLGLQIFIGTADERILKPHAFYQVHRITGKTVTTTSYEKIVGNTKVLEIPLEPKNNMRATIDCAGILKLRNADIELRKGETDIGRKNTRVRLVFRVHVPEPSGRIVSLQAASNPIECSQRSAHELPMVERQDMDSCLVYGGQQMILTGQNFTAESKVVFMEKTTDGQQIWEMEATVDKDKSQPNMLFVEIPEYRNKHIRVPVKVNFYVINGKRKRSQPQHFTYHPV

[2] = molecular target: T2, FoxP1 RBR-FKH;NFAT1 (Mus musculus;Mus musculus, UniProt P58462;Q60591 427-579;394-680, |); assay: EMSA; NFAT 0.4 uM; FoxP1 monomer; EMSA: 20 mM HEPES pH 7.5, 150 mM NaCl, 1.5 mM MgCl2, 2 mM DTT, 4 C, 0.2 uM DNA; pull-down: 20 mM Tris-HCl pH 7.5, 100 mM NaCl, 1.5 mM MgCl2, RT, 0.4 uM protein, 0.1 uM DNA
T2 sequence 1: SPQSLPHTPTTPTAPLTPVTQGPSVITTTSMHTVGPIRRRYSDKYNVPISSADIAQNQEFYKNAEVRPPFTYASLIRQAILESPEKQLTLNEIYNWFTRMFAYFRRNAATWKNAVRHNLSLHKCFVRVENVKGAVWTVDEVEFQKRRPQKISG
T2 sequence 2: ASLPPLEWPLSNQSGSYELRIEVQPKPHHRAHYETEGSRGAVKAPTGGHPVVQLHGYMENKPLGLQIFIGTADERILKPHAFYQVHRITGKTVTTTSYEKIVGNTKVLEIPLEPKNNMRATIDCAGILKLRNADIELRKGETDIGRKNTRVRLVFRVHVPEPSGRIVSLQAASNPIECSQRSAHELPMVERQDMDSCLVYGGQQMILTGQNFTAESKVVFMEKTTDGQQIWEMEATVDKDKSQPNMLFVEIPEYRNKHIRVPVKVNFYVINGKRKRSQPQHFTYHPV

[3] = molecular target: T1, FoxP3 RBR-FKH;NFAT1; assay: EMSA; NFAT 0.4 uM; FoxP3 monomer; EMSA: 20 mM HEPES pH 7.5, 150 mM NaCl, 1.5 mM MgCl2, 2 mM DTT, 4 C, 0.2 uM DNA; pull-down: 20 mM Tris-HCl pH 7.5, 100 mM NaCl, 1.5 mM MgCl2, RT, 0.4 uM protein, 0.1 uM DNA

Binder	binding result [1]	binding result [2]	binding result [3]
B1	binds	binds	–
B2	–	binds	binds
